From US20120316071A1 (published 2012)

Assays:
[1] = target: T1, Recombinant Human DLL4 (delta-like protein 4) (human, UniProt Q9NR61 27-524); test: ELISA, DLL4-coated plate, 100 nM Fab
T1 construct: Bought recombinant human DLL4 (R&D Systems Cat#1506-D4/CF); also called rHuman DLL4

[2] = target: T1, Recombinant Human DLL4 (delta-like …); test: ECL (MSD) binding assay, immobilised DLL4, 10 nM Fab;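 note: fab binding read as electrochemiluminescence via a TAG-labelled detection antibody, 1 h incubations at 20 °C, antigen signal compared with each well's blank, ratio of at least 4 scored as binder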

ELISA Signal [100 nM Fab] [1]	ECL Signal [10 nM Fab] [2]	Binder
0.02	46800	Fab VH5-51_IGHD5-18*01>3_IGHJ4*01 G100K/G104T & V3-4_IGLJ1*01 M94L (Fab, V domains shown, Fab; expressed with CH1 (His and Flag tags) and lambda CL from the expression plasmids; also called H:KT & M94L) VH: EVQLVQSGAEVKKPGESLKISCKGSGYSFTSYWIGWVRQMPGKGLEWMGIIYPGDSDTRYSPSFQGQVTISADKSISTAYLQWSSLKASDTAMYYCARRKYSYTYDYFDYWGQGTLVTVSS VL: QTVVTQEPSFSVSPGGTVTLTCGLSSGSVSTSYYPSWYQQTPGQAPRTLIYSTNTRSSGVPDRFSGSILGNKAALTITGAQADDESDYYCVLYLGSGISYVFGTGTKVTVL
0.01	45300	Fab VH5-51_IGHD5-18*01>3_IGHJ4*01 G100K/G104T & V3-4_IGLJ1*01 V91G (Fab, V domains shown, Fab; expressed with CH1 (His and Flag tags) and lambda CL from the expression plasmids; also called H:KT & V91G) VH: EVQLVQSGAEVKKPGESLKISCKGSGYSFTSYWIGWVRQMPGKGLEWMGIIYPGDSDTRYSPSFQGQVTISADKSISTAYLQWSSLKASDTAMYYCARRKYSYTYDYFDYWGQGTLVTVSS VL: QTVVTQEPSFSVSPGGTVTLTCGLSSGSVSTSYYPSWYQQTPGQAPRTLIYSTNTRSSGVPDRFSGSILGNKAALTITGAQADDESDYYCGLYMGSGISYVFGTGTKVTVL
0.01	51300	Fab VH5-51_IGHD5-18*01>3_IGHJ4*01 G100K/G104T & V3-4_IGLJ1*01 M94N (Fab, V domains shown, Fab; expressed with CH1 (His and Flag tags) and lambda CL from the expression plasmids; also called H:KT & M94N) VH: EVQLVQSGAEVKKPGESLKISCKGSGYSFTSYWIGWVRQMPGKGLEWMGIIYPGDSDTRYSPSFQGQVTISADKSISTAYLQWSSLKASDTAMYYCARRKYSYTYDYFDYWGQGTLVTVSS VL: QTVVTQEPSFSVSPGGTVTLTCGLSSGSVSTSYYPSWYQQTPGQAPRTLIYSTNTRSSGVPDRFSGSILGNKAALTITGAQADDESDYYCVLYNGSGISYVFGTGTKVTVL
0.02	52300	Fab VH5-51_IGHD5-18*01>3_IGHJ4*01 G100K/G104T & V3-4_IGLJ1*01 S96W (Fab, V domains shown, Fab; expressed with CH1 (His and Flag tags) and lambda CL from the expression plasmids; also called H:KT & S96W) VH: EVQLVQSGAEVKKPGESLKISCKGSGYSFTSYWIGWVRQMPGKGLEWMGIIYPGDSDTRYSPSFQGQVTISADKSISTAYLQWSSLKASDTAMYYCARRKYSYTYDYFDYWGQGTLVTVSS VL: QTVVTQEPSFSVSPGGTVTLTCGLSSGSVSTSYYPSWYQQTPGQAPRTLIYSTNTRSSGVPDRFSGSILGNKAALTITGAQADDESDYYCVLYMGWGISYVFGTGTKVTVL
0	22500	Fab VH5-51_IGHD5-18*01>3_IGHJ4*01 G100K/G104T & V3-4_IGLJ1*01 V91E (Fab, V domains shown, Fab; expressed with CH1 (His and Flag tags) and lambda CL from the expression plasmids; also called H:KT & V91E) VH: EVQLVQSGAEVKKPGESLKISCKGSGYSFTSYWIGWVRQMPGKGLEWMGIIYPGDSDTRYSPSFQGQVTISADKSISTAYLQWSSLKASDTAMYYCARRKYSYTYDYFDYWGQGTLVTVSS VL: QTVVTQEPSFSVSPGGTVTLTCGLSSGSVSTSYYPSWYQQTPGQAPRTLIYSTNTRSSGVPDRFSGSILGNKAALTITGAQADDESDYYCELYMGSGISYVFGTGTKVTVL
0.01	77800	Fab VH5-51_IGHD5-18*01>3_IGHJ4*01 G100K/G104T & V3-4_IGLJ1*01 M94R (Fab, V domains shown, Fab; expressed with CH1 (His and Flag tags) and lambda CL from the expression plasmids; also called H:KT & M94R) VH: EVQLVQSGAEVKKPGESLKISCKGSGYSFTSYWIGWVRQMPGKGLEWMGIIYPGDSDTRYSPSFQGQVTISADKSISTAYLQWSSLKASDTAMYYCARRKYSYTYDYFDYWGQGTLVTVSS VL: QTVVTQEPSFSVSPGGTVTLTCGLSSGSVSTSYYPSWYQQTPGQAPRTLIYSTNTRSSGVPDRFSGSILGNKAALTITGAQADDESDYYCVLYRGSGISYVFGTGTKVTVL
0.02	43000	Fab VH5-51_IGHD5-18*01>3_IGHJ4*01 G100K/G104T & V3-4_IGLJ1*01 M94T (Fab, V domains shown, Fab; expressed with CH1 (His and Flag tags) and lambda CL from the expression plasmids; also called H:KT & M94T) VH: EVQLVQSGAEVKKPGESLKISCKGSGYSFTSYWIGWVRQMPGKGLEWMGIIYPGDSDTRYSPSFQGQVTISADKSISTAYLQWSSLKASDTAMYYCARRKYSYTYDYFDYWGQGTLVTVSS VL: QTVVTQEPSFSVSPGGTVTLTCGLSSGSVSTSYYPSWYQQTPGQAPRTLIYSTNTRSSGVPDRFSGSILGNKAALTITGAQADDESDYYCVLYTGSGISYVFGTGTKVTVL
0.02	49600	Fab VH5-51_IGHD5-18*01>3_IGHJ4*01 G100K/G104T & V3-4_IGLJ1*01 M94S (Fab, V domains shown, Fab; expressed with CH1 (His and Flag tags) and lambda CL from the expression plasmids; also called H:KT & M94S) VH: EVQLVQSGAEVKKPGESLKISCKGSGYSFTSYWIGWVRQMPGKGLEWMGIIYPGDSDTRYSPSFQGQVTISADKSISTAYLQWSSLKASDTAMYYCARRKYSYTYDYFDYWGQGTLVTVSS VL: QTVVTQEPSFSVSPGGTVTLTCGLSSGSVSTSYYPSWYQQTPGQAPRTLIYSTNTRSSGVPDRFSGSILGNKAALTITGAQADDESDYYCVLYSGSGISYVFGTGTKVTVL
0.01	39900	Fab VH5-51_IGHD5-18*01>3_IGHJ4*01 G100K/G104T & V3-4_IGLJ1*01 M94P (Fab, V domains shown, Fab; expressed with CH1 (His and Flag tags) and lambda CL from the expression plasmids; also called H:KT & M94P) VH: EVQLVQSGAEVKKPGESLKISCKGSGYSFTSYWIGWVRQMPGKGLEWMGIIYPGDSDTRYSPSFQGQVTISADKSISTAYLQWSSLKASDTAMYYCARRKYSYTYDYFDYWGQGTLVTVSS VL: QTVVTQEPSFSVSPGGTVTLTCGLSSGSVSTSYYPSWYQQTPGQAPRTLIYSTNTRSSGVPDRFSGSILGNKAALTITGAQADDESDYYCVLYPGSGISYVFGTGTKVTVL
0.01	40400	Fab VH5-51_IGHD5-18*01>3_IGHJ4*01 G100K/G104T & V3-4_IGLJ1*01 S96G (Fab, V domains shown, Fab; expressed with CH1 (His and Flag tags) and lambda CL from the expression plasmids; also called H:KT & S96G) VH: EVQLVQSGAEVKKPGESLKISCKGSGYSFTSYWIGWVRQMPGKGLEWMGIIYPGDSDTRYSPSFQGQVTISADKSISTAYLQWSSLKASDTAMYYCARRKYSYTYDYFDYWGQGTLVTVSS VL: QTVVTQEPSFSVSPGGTVTLTCGLSSGSVSTSYYPSWYQQTPGQAPRTLIYSTNTRSSGVPDRFSGSILGNKAALTITGAQADDESDYYCVLYMGGGISYVFGTGTKVTVL
0.01	51200	Fab VH5-51_IGHD5-18*01>3_IGHJ4*01 G100K/G104T & V3-4_IGLJ1*01 V91I (Fab, V domains shown, Fab; expressed with CH1 (His and Flag tags) and lambda CL from the expression plasmids; also called H:KT & V91I) VH: EVQLVQSGAEVKKPGESLKISCKGSGYSFTSYWIGWVRQMPGKGLEWMGIIYPGDSDTRYSPSFQGQVTISADKSISTAYLQWSSLKASDTAMYYCARRKYSYTYDYFDYWGQGTLVTVSS VL: QTVVTQEPSFSVSPGGTVTLTCGLSSGSVSTSYYPSWYQQTPGQAPRTLIYSTNTRSSGVPDRFSGSILGNKAALTITGAQADDESDYYCILYMGSGISYVFGTGTKVTVL
0.01	27100	Fab VH5-51_IGHD5-18*01>3_IGHJ4*01 G100K/G104T & V3-4_IGLJ1*01 V91H (Fab, V domains shown, Fab; expressed with CH1 (His and Flag tags) and lambda CL from the expression plasmids; also called H:KT & V91H) VH: EVQLVQSGAEVKKPGESLKISCKGSGYSFTSYWIGWVRQMPGKGLEWMGIIYPGDSDTRYSPSFQGQVTISADKSISTAYLQWSSLKASDTAMYYCARRKYSYTYDYFDYWGQGTLVTVSS VL: QTVVTQEPSFSVSPGGTVTLTCGLSSGSVSTSYYPSWYQQTPGQAPRTLIYSTNTRSSGVPDRFSGSILGNKAALTITGAQADDESDYYCHLYMGSGISYVFGTGTKVTVL
0.02	38300	Fab VH5-51_IGHD5-18*01>3_IGHJ4*01 G100K/G104T & V3-4_IGLJ1*01 V91C (Fab, V domains shown, Fab; expressed with CH1 (His and Flag tags) and lambda CL from the expression plasmids; also called H:KT & V91C) VH: EVQLVQSGAEVKKPGESLKISCKGSGYSFTSYWIGWVRQMPGKGLEWMGIIYPGDSDTRYSPSFQGQVTISADKSISTAYLQWSSLKASDTAMYYCARRKYSYTYDYFDYWGQGTLVTVSS VL: QTVVTQEPSFSVSPGGTVTLTCGLSSGSVSTSYYPSWYQQTPGQAPRTLIYSTNTRSSGVPDRFSGSILGNKAALTITGAQADDESDYYCCLYMGSGISYVFGTGTKVTVL
0.02	47300	Fab VH5-51_IGHD5-18*01>3_IGHJ4*01 G100K/G104T & V3-4_IGLJ1*01 M94V (Fab, V domains shown, Fab; expressed with CH1 (His and Flag tags) and lambda CL from the expression plasmids; also called H:KT & M94V) VH: EVQLVQSGAEVKKPGESLKISCKGSGYSFTSYWIGWVRQMPGKGLEWMGIIYPGDSDTRYSPSFQGQVTISADKSISTAYLQWSSLKASDTAMYYCARRKYSYTYDYFDYWGQGTLVTVSS VL: QTVVTQEPSFSVSPGGTVTLTCGLSSGSVSTSYYPSWYQQTPGQAPRTLIYSTNTRSSGVPDRFSGSILGNKAALTITGAQADDESDYYCVLYVGSGISYVFGTGTKVTVL
